Like-named read-outs stand apart in the source and are kept apart here.
Key:
human PTH1 receptors [1] = molecular target: T1, human PTH1 receptors (Homo sapiens, UniProt Q03431); experiment: in vitro ability to produce cAMP, HKRK-B7 cells; type: cell-based; conditions: Table 2(1), n=2-3
T1 construct: expressed in transfected cells; host or cells: HKRK-B7 and HKRK-B64 cells (derived from pig kidney LLC-PK1 cells)
T1 sequence (Q03431 27-593): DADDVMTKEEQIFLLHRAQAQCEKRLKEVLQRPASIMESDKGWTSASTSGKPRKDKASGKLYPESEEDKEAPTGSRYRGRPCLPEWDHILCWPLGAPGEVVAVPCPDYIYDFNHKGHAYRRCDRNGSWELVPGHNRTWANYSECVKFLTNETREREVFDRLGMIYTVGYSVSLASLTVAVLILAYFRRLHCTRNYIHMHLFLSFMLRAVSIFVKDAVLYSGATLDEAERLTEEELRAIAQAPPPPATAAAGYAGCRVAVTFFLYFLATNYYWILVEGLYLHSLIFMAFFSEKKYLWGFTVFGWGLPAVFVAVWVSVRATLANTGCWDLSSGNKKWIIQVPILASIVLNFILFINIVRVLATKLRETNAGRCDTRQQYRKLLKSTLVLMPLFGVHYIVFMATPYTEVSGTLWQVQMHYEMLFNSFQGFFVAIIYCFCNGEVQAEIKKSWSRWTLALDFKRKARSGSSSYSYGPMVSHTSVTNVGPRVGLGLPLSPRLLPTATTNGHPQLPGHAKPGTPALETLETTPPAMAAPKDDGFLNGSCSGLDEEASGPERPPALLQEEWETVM
Description: (§1) Each PEG-PTH sample was assayed for its ability to produce cAMP (indicative of the increasing effect of PTH on bone mass) as follows. […] These cells were seeded in 96-well plates at 1×10^5 cells/well and incubated overnight. […] After removing the reaction solution, the plates were placed on powdered dry ice to freeze the cells and then removed from the dry ice. The cells were thawed with 50 μL of 50 mM HCl and frozen again on dry ice. The level of intracellular cAMP was determined with a commercially available EIA kit (Biotrak cAMP EIA system, Amersham).

human PTH1 receptors [2] = molecular target: T1, human PTH1 receptors; experiment: in vitro ability to produce cAMP, HKRK-B64 cells; type: cell-based; conditions: Table 2(2), n=2-3
Description: Each PEG-PTH sample was assayed for its ability to produce cAMP (indicative of the increasing effect of PTH on bone mass) as follows. HKRK-B7 and HKRK-B64 cells, genetically modified from pig kidney-derived LLC-PK1 cells to overexpress human PTH1 receptors at levels of about 1×10^6 and 9×10^4 receptors per cell, respectively, as well as EW29 cells expressing about 1.9×10^5 rat PTH1 receptors per cell (Takasu et al., J. Bone. Miner. Res. 14: 11-20, 1999) were grown in DMEM supplemented with 10% FBS, 1% penicillin and 1% streptomycin. These cells were seeded in 96-well plates at 1×10^5 cells/well and incubated overnight. On the following day, the cells were washed once with 200 μL binding buffer (50 mM Tris-HCl/100 mM NaCl/5 mM KCl/2 mM CaCl2/5% inactivated horse serum/0.5% inactivated bovine serum, pH 7.7), followed by addition of 100 μL cAMP assay buffer (DMEM/2 mM 3-isobutyl-1-methylxanthine/1 mg/mL bovine serum albumin/35 mM HEPES-NaOH, pH 7.4) on ice. […] After removing the reaction solution, the plates were placed on powdered dry ice to freeze the cells and then removed from the dry ice. The cells were thawed with 50 μL of 50 mM HCl and frozen again on dry ice. The level of intracellular cAMP was determined with a commercially available EIA kit (Biotrak cAMP EIA system, Amersham).

rat PTH1 receptors = molecular target: T2, rat PTH1 receptors (Rattus norvegicus, UniProt P25961); experiment: in vitro ability to produce cAMP, EW29 cells; type: cell-based; conditions: Table 2(3), n=2-3
T2 construct: expressed in transfected cells; host or cells: EW29 cells
T2 sequence (P25961 27-591): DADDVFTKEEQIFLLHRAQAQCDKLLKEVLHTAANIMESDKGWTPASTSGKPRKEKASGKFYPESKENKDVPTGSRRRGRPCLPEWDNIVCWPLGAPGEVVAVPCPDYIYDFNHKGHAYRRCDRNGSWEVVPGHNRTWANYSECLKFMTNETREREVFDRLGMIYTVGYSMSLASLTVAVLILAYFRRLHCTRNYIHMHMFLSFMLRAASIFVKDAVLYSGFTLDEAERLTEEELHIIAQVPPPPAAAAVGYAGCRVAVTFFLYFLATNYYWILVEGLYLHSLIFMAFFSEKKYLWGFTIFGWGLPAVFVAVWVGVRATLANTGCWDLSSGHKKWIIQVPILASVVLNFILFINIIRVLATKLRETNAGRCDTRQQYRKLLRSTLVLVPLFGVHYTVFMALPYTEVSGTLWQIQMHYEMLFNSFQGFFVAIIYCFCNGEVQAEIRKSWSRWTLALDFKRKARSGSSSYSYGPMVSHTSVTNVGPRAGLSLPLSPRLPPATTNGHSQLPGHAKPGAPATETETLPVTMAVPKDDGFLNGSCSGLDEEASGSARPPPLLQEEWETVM
Description: as §1

[3] = Hypercalcemic effect of PEG-PTH(1-34) in normal male BDF1 mice; type: in vivo; conditions: sc, hPTH(1-34) 50-500 nmol/kg, PEG-PTHs 150 nmol/kg
Description: 2 k and 5 k PEG-PTH(1-34) were also adjusted similarly to 30 nmol/mL (calculated as PTH) and allowed to stand on ice immediately before administration.
Male BDF1 mice at 5 weeks of age (Charles River Japan, Inc.) were measured for their body weight. Immediately before drug administration, blood was collected by orbital puncture into heparinized capillary tubes and measured for baseline levels of blood ionized calcium and pH using a Ca^2+/pH analyzer (Model 348/Bayer Medical Ltd.) to give the corrected level of ionized calcium at pH 7.4 for each sample. The mice received subcutaneous administration of each drug at a dose of 5 mL/kg. […] At 1, 3 and 6 hours after administration, blood was collected by orbital puncture to monitor the time course of corrected blood ionized calcium levels.

[4] = clinical trial, cited from earlier work

| Compound | Maximum cAMP response (human PTH1 receptors [1]) | EC50 (human PTH1 receptors [1]; cAMP production) | Maximum cAMP response (human PTH1 receptors [2]) | EC50 (human PTH1 receptors [2]; cAMP production) | Maximum cAMP response (rat PTH1 receptors) | EC50 (rat PTH1 receptors; cAMP production) | time of maximum increase in blood ionized calcium levels after administration [3] | nausea and headache as side effects (in words) ([4]; dose of 20 μg) | nausea and headache as side effects (in words) ([4]; dose of 40 μg) |
| --- | --- | --- | --- | --- | --- | --- | --- | --- | --- |
| 2 k PEG-[Cys^35]-hPTH(1-35): [Cys^35]-PTH(1-35) conjugated with mPEG 2 k-MAL (2 kDa methoxy-PEG-maleimide) at the C-terminal cysteine (SVSEIQLMHNLGKHLNSMERVEWLRKKLQDVHNFC; Parathyroid hormone 2 kDa mPEG-maleimide at Cys35; UniProt P01270 32-66, looked up, variant V35C) | 109.3 ± 10.1 pmol/well | 0.5 nM | 65.4 ± 19.4 pmol/well | 0.6 nM | 52.2 ± 12.3 pmol/well | 2.2 nM |  |  |  |
| CC[C@H](C)[C@H](NC(=O)[C@H](CCC(=O)O)NC(=O)[C@H](CO)NC(=O)[C@@H](NC(=O)[C@@H](N)CO)C(C)C)C(=O)N[C@@H](CCC(N)=O)C(=O)N[C@@H](CC(C)C)C(=O)N[C@@H](CCSC)C(=O)N[C@@H](Cc1cnc[nH]1)C(=O)N[C@@H](CC(N)=O)C(=O)N[C@@H](CC(C)C)C(=O)NCC(=O)N[C@@H](CCCCN)C(=O)N[C@@H](Cc1cnc[nH]1)C(=O)N[C@@H](CC(C)C)C(=O)N[C@@H](CC(N)=O)C(=O)N[C@@H](CO)C(=O)N[C@@H](CCSC)C(=O)N[C@@H](CCC(=O)O)C(=O)N[C@@H](CCCN=C(N)N)C(=O)N[C@H](C(=O)N[C@@H](CCC(=O)O)C(=O)N[C@@H](Cc1c[nH]c2ccccc12)C(=O)N[C@@H](CC(C)C)C(=O)N[C@@H](CCCN=C(N)N)C(=O)N[C@@H](CCCCN)C(=O)N[C@@H](CCCCN)C(=O)N[C@@H](CC(C)C)C(=O)N[C@@H](CCC(N)=O)C(=O)N[C@@H](CC(=O)O)C(=O)N[C@H](C(=O)N[C@@H](Cc1cnc[nH]1)C(=O)N[C@@H](CC(N)=O)C(=O)N[C@@H](Cc1ccccc1)C(=O)O)C(C)C)C(C)C [hPTH(1-34), reference compound] |  |  |  |  |  |  | one | same frequency as observed in the placebo group | caused nausea and headache as side effects at a statistically significant level |

Source: patent US20050148763A1, “Peg-binding pth or peg-binding pth derivative” (Chugai Seiyaku Kabushiki Kaisha, priority 2002, published 2005)
